Target: FvWRKY75 (Fragaria vesca, UniProt A0A1S5SLB0 1-190)
Test: EMSA; EMSA Kit (Beyotime), according to Wang, Shi, et al. 2022; buffer, salt, pH and temperature not stated
Details: protein: recombinant; tags: His (as stated); blunt

Chain of FvWRKY75 (A0A1S5SLB0 entry or part of it): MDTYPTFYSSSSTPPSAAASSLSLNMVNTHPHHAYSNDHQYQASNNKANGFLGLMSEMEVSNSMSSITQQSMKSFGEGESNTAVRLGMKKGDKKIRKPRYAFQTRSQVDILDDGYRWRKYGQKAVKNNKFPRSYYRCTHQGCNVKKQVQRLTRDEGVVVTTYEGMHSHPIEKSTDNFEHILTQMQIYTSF

B1: FvPR10.14-P (FvWRKY75 probe) (dsDNA)
DNA 1: ATATATGGGATAGCCAATGTTGACTGCTCGACATTACGTGTATA
DNA 2: TATACACGTAATGTCGAGCAGTCAACATTGGCTATCCCATATAT
  binding result: binds

From PMC12686569, “FaMYB63 and FvWYRKY75 Activate FvPR10.14 Boosting Strawberry Immunity Against Powdery Mildew”
